The term stoichiometry N denotes the number of molecules, sites or subunits per partner or assembly.

The results in this text go back to paper doi:10.1101/2022.06.26.497646.

The target of the test is complex III dimer (CIII2, cytochrome bc1 complex) of Tetrahymena thermophila (Tetrahymena thermophila (endogenous)). The experiment in a line: cryo-EM structure.

In the case of “complex III dimer (CIII2, cytochrome bc1 complex) of Tetrahymena thermophila”, the stoichiometry N was found to be 2.
